Experimental findings from PMC4912689, “The Extracellular Surface of the GLP-1 Receptor Is a Molecular Trigger for Biased Agonism” (Cell, 2016) are described below.

Sequences and labels used below:
B1: unnamed (parent)
chain 1: HSQGTFTSDYSKYLDSRRAQDFVQWLMNTKRNRNNIA
chain 2: RPQGATVSLWETVQKWREYRRQCQRSLTEDPPPATDLFCNRTFDEYACWPDGEPGSFVNVSCPWYLPWASSVPQGHVYRFCTAEGLWLQKDNSSLPWRDLSECEESKRGERSSPEEQLLFLYIIYTVGYALSFSALVIASAILLGFRHLHCTRNYIHLNLFASFILRALSVFIKDAALKWMYSTAAQQHQWDGLLSYQDSLSCRLVFLLMQYCVAANYYWLLVEGVYLYTLLAFSVLSEQWIFRLYVSIGWGVPLLFVVPWGIVKYLYEDEGCWTRNSNMNYWLIIRLPILFAIGVNFLIFVRVICIVVSKLKANLMCKTDIKCRLAKSTLTLIPLLGTHEVIFAFVMDEHARGTLRFIKLFTELSFTSFQGLMVAILYCFVNNEVQLEFRKSWERWRLEHLHIQRDSSMKPLKCPTSSLSSGATAGSSMYTATCQASCS

Variants of B1 are the subject of this assay. Description: radioligand inhibition binding (competition with 125I-exendin-4(9-39)). Particulars: read off a plot.
As for chain 2 RPQGATVSLWETVQKWREYRRQCQRSLTEDPPPATDLFCNRTFDEYACWPDGEPGSFVNVSCPWYLPWASSVPQGHVYRFCTAEGLWLQKDNSSLPWRDLSECEESKRGERSSPEEQLLFLYIIYTVGYALSFSALVIASAILLGFRHLHCTRNYIHLNLFASFILRALSVFIKDAALKWMYSTAAQQHQWDGLLSYQDSLSCRLVFLLMQYCVAANYYWLLVEGVYLYTLLAFSVLSEQWIFRLYVSIGWGVPLLFVVPWGIVKYLYEDEGCWTRNSNMNYWLIIRLPILFAIGVNFLIFVRVICIVVSKLKANLMCKTDIKCRLAKSTLTLIPLLGTHEVIFAFVMDEHARATLRFIKLFTELSFTSFQGLMVAILYCFVNNEVQLEFRKSWERWRLEHLHIQRDSSMKPLKCPTSSLSSGATAGSSMYTATCQASCS [chain 2 G354A], the log10 ratio was -0.45 ΔpKi.
The value for chain 2 RPQGATVSLWETVQKWREYRRQCQRSLTEDPPPATDLFCNRTFDEYACWPDGEPGSFVNVSCPWYLPWASSVPQGHVYRFCTAEGLWLQKDNSSLPWRDLSECEESKRGERSSPEEQLLFLYIIYTVGYALSFSALVIASAILLGFRHLHCTRNYIHLNLFASFILRALSVFIKDAALKWMYSTAAQQHQWDGLLSYQDSLSCRLVFLLMQYCVAANYYWLLVEGVYLYTLLAFSVLSEQWIFRLYVSIGWGVPLLFVVPWGIVKYLYEDEGCWTRNSNMNYWLIIRLPILFAIGVNFLIFVRVICIVVSKLKANLMCKTDIKCRLAKSTLTLIPLLGTHEVIFAFVMDAHARGTLRFIKLFTELSFTSFQGLMVAILYCFVNNEVQLEFRKSWERWRLEHLHIQRDSSMKPLKCPTSSLSSGATAGSSMYTATCQASCS [chain 2 E350A] was -0.85 ΔpKi.
To chain 2 RPQGATVSLWETVQKWREYRRQCQRSLTEDPPPATDLFCNRTFDEYACWPDGEPGSFVNVSCPWYLPWASSVPQGHVYRFCTAEGLWLQKDNSSLPWRDLSECEESKRGERSSPEEQLLFLYIIYTVGYALSFSALVIASAILLGFRHLHCTRNYIHLNLFASFILRALSVFIKDAALKWMYSTAAQQHQWDGLLSYQDSLSCRLVFLLMQYCVAANYYWLLVEGVYLYTLLAFSVLSEQWIFRLYVSIGWGVPLLFVVPWGIVKYLYEDEGCWTRNSNMNYWLIIRLPILFAIGVNFLIFVRVICIVVSKLKANLMCKTDIKCRLAKSTLTLIPLLGTHEVIFAFVMDEHARGTLRFIKLATELSFTSFQGLMVAILYCFVNNEVQLEFRKSWERWRLEHLHIQRDSSMKPLKCPTSSLSSGATAGSSMYTATCQASCS [chain 2 F362A] belongs -0.15 ΔpKi.
The value for chain 2 RPQGATVSLWETVQKWREYRRQCQRSLTEDPPPATDLFCNRTFDEYACWPDGEPGSFVNVSCPWYLPWASSVPQGHVYRFCTAEGLWLQKDNSSLPWRDLSECEESKRGERSSPEEQLLFLYIIYTVGYALSFSALVIASAILLGFRHLHCTRNYIHLNLFASFILRALSVFIKDAALKWMYSTAAQQHQWDGLLSYQDSLSCRLVFLLMQYCVAANYYWLLVEGVYLYTLLAFSVLSEQWIFRLYVSIGWGVPLLFVVPWGIVKYLYADEGCWTRNSNMNYWLIIRLPILFAIGVNFLIFVRVICIVVSKLKANLMCKTDIKCRLAKSTLTLIPLLGTHEVIFAFVMDEHARGTLRFIKLFTELSFTSFQGLMVAILYCFVNNEVQLEFRKSWERWRLEHLHIQRDSSMKPLKCPTSSLSSGATAGSSMYTATCQASCS [chain 2 E269A] was -1.3 ΔpKi; that for chain 2 RPQGATVSLWETVQKWREYRRQCQRSLTEDPPPATDLFCNRTFDEYACWPDGEPGSFVNVSCPWYLPWASSVPQGHVYRFCTAEGLWLQKDNSSLPWRDLSECEESKRGERSSPEEQLLFLYIIYTVGYALSFSALVIASAILLGFRHLHCTRNYIHLNLFASFILRALSVFIKDAALKWMYSTAAQQHQWAGLLSYQDSLSCRLVFLLMQYCVAANYYWLLVEGVYLYTLLAFSVLSEQWIFRLYVSIGWGVPLLFVVPWGIVKYLYEDEGCWTRNSNMNYWLIIRLPILFAIGVNFLIFVRVICIVVSKLKANLMCKTDIKCRLAKSTLTLIPLLGTHEVIFAFVMDEHARGTLRFIKLFTELSFTSFQGLMVAILYCFVNNEVQLEFRKSWERWRLEHLHIQRDSSMKPLKCPTSSLSSGATAGSSMYTATCQASCS [chain 2 D192A] was -0.2 ΔpKi.
As for chain 2 RPQGATVSLWETVQKWREYRRQCQRSLTEDPPPATDLFCNRTFDEYACWPDGEPGSFVNVSCPWYLPWASSVPQGHVYRFCTAEGLWLQKDNSSLPWRDLSECEESKRGERSSPEEQLLFLYIIYTVGYALSFSALVIASAILLGFRHLHCTRNYIHLNLFASFILRALSVFIKDAALKWMYSTAAQQHQWDGLLSYQDSLSCRLVFLLMQYCVAANYYWLLVEGVYLYTLLAFSVLSEQWIFRLYVSIGWGVPLLFVVPWGIVKYLYEAEGCWTRNSNMNYWLIIRLPILFAIGVNFLIFVRVICIVVSKLKANLMCKTDIKCRLAKSTLTLIPLLGTHEVIFAFVMDEHARGTLRFIKLFTELSFTSFQGLMVAILYCFVNNEVQLEFRKSWERWRLEHLHIQRDSSMKPLKCPTSSLSSGATAGSSMYTATCQASCS [chain 2 D270A], the log10 ratio is -1 ΔpKi.
To chain 2 RPQGATVSLWETVQKWREYRRQCQRSLTEDPPPATDLFCNRTFDEYACWPDGEPGSFVNVSCPWYLPWASSVPQGHVYRFCTAEGLWLQKDNSSLPWRDLSECEESKRGERSSPEEQLLFLYIIYTVGYALSFSALVIASAILLGFRHLHCTRNYIHLNLFASFILRALSVFIKDAALKWMYSTAAQQHQWDGLLSYQDSLSCRLVFLLMQYCVAANYYWLLVEGVYLYTLLAFSVLSEQWIFRLYVSIGWGVPLLFVVPWGIVKYLYEDEGAWTRNSNMNYWLIIRLPILFAIGVNFLIFVRVICIVVSKLKANLMCKTDIKCRLAKSTLTLIPLLGTHEVIFAFVMDEHARGTLRFIKLFTELSFTSFQGLMVAILYCFVNNEVQLEFRKSWERWRLEHLHIQRDSSMKPLKCPTSSLSSGATAGSSMYTATCQASCS [chain 2 C273A] belongs 0.4 ΔpKi; to chain 2 RPQGATVSLWETVQKWREYRRQCQRSLTEDPPPATDLFCNRTFDEYACWPDGEPGSFVNVSCPWYLPWASSVPQGHVYRFCTAEGLWLQKDNSSLPWRDLSECEESKRGERSSPEEQLLFLYIIYTVGYALSFSALVIASAILLGFRHLHCTRNYIHLNLFASFILRALSVFIKDAALKWMYSTAAQQHQWDGLLSYQDSLSCRLVFLLMQYCVAANYYWLLVEGVYLYTLLAFSVLSEQWIFRLYVSIGWGVPLLFVVPWAIVKYLYEDEGCWTRNSNMNYWLIIRLPILFAIGVNFLIFVRVICIVVSKLKANLMCKTDIKCRLAKSTLTLIPLLGTHEVIFAFVMDEHARGTLRFIKLFTELSFTSFQGLMVAILYCFVNNEVQLEFRKSWERWRLEHLHIQRDSSMKPLKCPTSSLSSGATAGSSMYTATCQASCS [chain 2 G262A], 0.1 ΔpKi; to chain 2 RPQGATVSLWETVQKWREYRRQCQRSLTEDPPPATDLFCNRTFDEYACWPDGEPGSFVNVSCPWYLPWASSVPQGHVYRFCTAEGLWLQKDNSSLPWRDLSECEESKRGERSSPEEQLLFLYIIYTVGYALSFSALVIASAILLGFRHLHCTRNYIHLNLFASFILRALSVFIKDAALKWMYSTAAQQHQWDGLLSYQDSLSCRLVFLLMQYCVAANYYWLLVEGVYLYTLLAFSVLSEQWIFRLYVSIGWGVPLLFVVPWGIVKYLYEDEGCWTRNSNMNYWLIIRLPILFAIGVNFLIFVRVICIVVSKLKANLMCKTDIKCRLAKSTLTLIPLLGTHEVIFAFVMAEHARGTLRFIKLFTELSFTSFQGLMVAILYCFVNNEVQLEFRKSWERWRLEHLHIQRDSSMKPLKCPTSSLSSGATAGSSMYTATCQASCS [chain 2 D349A], -0.3 ΔpKi.
The value for chain 2 RPQGATVSLWETVQKWREYRRQCQRSLTEDPPPATDLFCNRTFDEYACWPDGEPGSFVNVSCPWYLPWASSVPQGHVYRFCTAEGLWLQKDNSSLPWRDLSECEESKRGERSSPEEQLLFLYIIYTVGYALSFSALVIASAILLGFRHLHCTRNYIHLNLFASFILRALSVFIKDAALKWMYSTAAQQHQWDGLLSYQASLSCRLVFLLMQYCVAANYYWLLVEGVYLYTLLAFSVLSEQWIFRLYVSIGWGVPLLFVVPWGIVKYLYEDEGCWTRNSNMNYWLIIRLPILFAIGVNFLIFVRVICIVVSKLKANLMCKTDIKCRLAKSTLTLIPLLGTHEVIFAFVMDEHARGTLRFIKLFTELSFTSFQGLMVAILYCFVNNEVQLEFRKSWERWRLEHLHIQRDSSMKPLKCPTSSLSSGATAGSSMYTATCQASCS [chain 2 D199A] was -0.25 ΔpKi; that for chain 2 RPQGATVSLWETVQKWREYRRQCQRSLTEDPPPATDLFCNRTFDEYACWPDGEPGSFVNVSCPWYLPWASSVPQGHVYRFCTAEGLWLQKDNSSLPWRDLSECEESKRGERSSPEEQLLFLYIIYTVGYALSFSALVIASAILLGFRHLHCTRNYIHLNLFASFILRALSVFIKDAALKWMYSTAAQQHQWDGLLSYQDSLSCRLVFLLMQYCVAANYYWLLVEGVYLYTLLAFSVLSEQWIFRLYVSIGWGVPLLFVVPWGIVKYLYEDAGCWTRNSNMNYWLIIRLPILFAIGVNFLIFVRVICIVVSKLKANLMCKTDIKCRLAKSTLTLIPLLGTHEVIFAFVMDEHARGTLRFIKLFTELSFTSFQGLMVAILYCFVNNEVQLEFRKSWERWRLEHLHIQRDSSMKPLKCPTSSLSSGATAGSSMYTATCQASCS [chain 2 E271A] was -0.15 ΔpKi; that for chain 2 RPQGATVSLWETVQKWREYRRQCQRSLTEDPPPATDLFCNRTFDEYACWPDGEPGSFVNVSCPWYLPWASSVPQGHVYRFCTAEGLWLQKDNSSLPWRDLSECEESKRGERSSPEEQLLFLYIIYTVGYALSFSALVIASAILLGFRHLHCTRNYIHLNLFASFILRALSVFIKDAALKWMYSTAAQQHQWDGLLSYQDSLSCRLVFLLMQYCVAANYYWLLVEGVYLYTLLAFSVLSEQWIFRLYVSIGWGVPLLFVVPWGIVKYLYEDEGCWTRNSNMNYWLIIRLPILFAIGVNFLIFVRVICIVVSKLKANLMCKTDIKCRLAKSTLTLIPLLGTHEVIFAFVMDEHARGTLRFIKLFTALSFTSFQGLMVAILYCFVNNEVQLEFRKSWERWRLEHLHIQRDSSMKPLKCPTSSLSSGATAGSSMYTATCQASCS [chain 2 E364A] was -0.5 ΔpKi.
The value for chain 2 RPQGATVSLWETVQKWREYRRQCQRSLTEDPPPATDLFCNRTFDEYACWPDGEPGSFVNVSCPWYLPWASSVPQGHVYRFCTAEGLWLQKDNSSLPWRDLSECEESKRGERSSPEEQLLFLYIIYTVGYALSFSALVIASAILLGFRHLHCTRNYIHLNLFASFILRALSVFIKDAALKWMYSTAAQQHQWDGLLSYQDSLSCRLVFLLMQYCVAANYYWLLVEGVYLYTLLAFSVLSEQWIFRLYVSIGWGVPLLFVVPWGIVKYLYEDEGCWTRNSNMNYWLIIRLPILFAIGVNFLIFVRVICIVVSKLKANLMCKTDIKCRLAKSTLTLIPLLGTHEVIFAFVMDEHARGTLRAIKLFTELSFTSFQGLMVAILYCFVNNEVQLEFRKSWERWRLEHLHIQRDSSMKPLKCPTSSLSSGATAGSSMYTATCQASCS [chain 2 F358A] was -1.1 ΔpKi; that for chain 2 RPQGATVSLWETVQKWREYRRQCQRSLTEDPPPATDLFCNRTFDEYACWPDGEPGSFVNVSCPWYLPWASSVPQGHVYRFCTAEGLWLQKDNSSLPWRDLSECEESKRGERSSPEEQLLFLYIIYTVGYALSFSALVIASAILLGFRHLHCTRNYIHLNLFASFILRALSVFIKDAALKWMYSTAAQQHQWDGLLSYQDSLSCRLVFLLMQYCVAANYYWLLVEGVYLYTLLAFSVLSEQWIFRLYVSIGWGVPLLFVVPWGIVKYLYEDEACWTRNSNMNYWLIIRLPILFAIGVNFLIFVRVICIVVSKLKANLMCKTDIKCRLAKSTLTLIPLLGTHEVIFAFVMDEHARGTLRFIKLFTELSFTSFQGLMVAILYCFVNNEVQLEFRKSWERWRLEHLHIQRDSSMKPLKCPTSSLSSGATAGSSMYTATCQASCS [chain 2 G272A] was 0.15 ΔpKi.
